Results published in the supplement of paper PMC7125110.
± gives the standard error. Fewer inactive variants are shown than the library holds.

B1: glmS ribozyme (parent)
chain: AUAAAAGCGCCAGAACUACAGAAAUGUAGUUGACGAGGAGGAGGUUUAUCGAAUUUUCGGCGGAUGCCUCCAAA

Legend:
Settings in all cases: with glucosamine-6-phosphate
[1] = variants of: B1; assay: self-cleavage kobs at 160 uM GlcN6P; higher = faster cleavage; RNA array
Outline: (§1)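 Glucosamine-6-phosphate (40 μM to 10 mM) in HEPES/KCl/Mg(OAc)2 buffer was flowed over sequenced MiSeq chips, and tiles were imaged over ~14 h. Barcoded ribozyme variants there had been transcribed in situ by E. coli RNA polymerase and were tracked through a hybridised Cy3 probe at 37 °C. One- or two-exponential decay fits to per-tile medians, normalised to baseline and to non-cleaving reference variants, gave kobs. kcat and KM came from weighted Michaelis–Menten fits across concentrations.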

[2] = variants of: B1; assay: self-cleavage kobs at 640 uM GlcN6P; higher = faster cleavage; RNA array
Outline: as §1

[3] = variants of: B1; assay: self-cleavage kobs at 2500 uM GlcN6P; higher = faster cleavage; RNA array
Outline: as §1

[4] = variants of: B1; assay: self-cleavage kobs at 10000 uM GlcN6P; higher = faster cleavage; RNA array
Outline: as §1

Row | Variant | self-cleavage kobs at 160 uM GlcN6P [1] [s⁻¹] | self-cleavage kobs at 640 uM GlcN6P [2] [s⁻¹] | self-cleavage kobs at 2500 uM GlcN6P [3] [s⁻¹] | self-cleavage kobs at 10000 uM GlcN6P [4] [s⁻¹]
1 | G9C A39C | < 1e-05 | < 1e-05 | < 1e-05 | < 1e-05
2 | G7U G9C C10G A53C C61U | < 1e-05 |  | < 1e-05 | 
3 | C11G U31G G44A U65C | < 1e-05 | < 1e-05 | < 1e-05 | 
4 | G9U C16U G29A U45A U54C | < 1e-05 |  |  | 
5 | C10U C50G C68U C70G | 0.000109 ± 4e-05 |  |  | 
6 | C8A A12U C16G G41A C68A | < 1e-05 | < 1e-05 | < 1e-05 | 
7 | C10G G40A C70A | < 1e-05 | < 1e-05 | < 1e-05 | < 1e-05
8 | G9U U30G G35U G51A | < 1e-05 | < 1e-05 |  | 
9 | G7U G37A A48C | < 1e-05 | < 1e-05 | < 1e-05 | < 1e-05
10 | C8U G63A | < 1e-05 |  | < 1e-05 | < 1e-05
11 | G9A C50U G51U A52U | < 1e-05 |  |  | 
12 | C10G U31A U49G | < 1e-05 |  |  | 
13 | C10U U56A G62A U65A U69G | 3.94e-05 ± 1.6e-05 |  |  | 
14 | G7C A33C G59A | < 1e-05 |  |  | 
15 | C10G G63C U65G | < 1e-05 |  | < 1e-05 | 
16 | C10A A14U A52U C70G | 0.00038 ± 0.00011 | 0.000294 ± 7.4e-05 | 8.93e-05 ± 3.8e-05 | 
17 | G7A G35A G51C | < 1e-05 |  | < 1e-05 | 
18 | G9U A42G U46G | < 1e-05 | < 1e-05 |  | 
19 | C10A U56C | < 1e-05 | < 1e-05 | < 1e-05 | 
20 | G7C C10G | < 1e-05 | < 1e-05 | < 1e-05 | 
21 | C11G A33U C34A G41A U54A | < 1e-05 | < 1e-05 | < 1e-05 | 
22 | C10U G40U G66U C67U | < 1e-05 |  | < 1e-05 | 

Row | Variant | self-cleavage kobs at 160 uM GlcN6P [1] [s⁻¹] | self-cleavage kobs at 640 uM GlcN6P [2] [s⁻¹] | self-cleavage kobs at 2500 uM GlcN6P [3] [s⁻¹] | self-cleavage kobs at 10000 uM GlcN6P [4] [s⁻¹]
23 | G9U C16G G32U G38A A42G | < 1e-05 |  |  | 
24 | C8G G60A C61A | < 1e-05 |  | < 1e-05 | < 1e-05
25 | C11G G13U U45C | < 1e-05 |  |  | 
26 | C8G U46C A53C | < 1e-05 |  | < 1e-05 | 
27 | G9U G40A A52U | < 1e-05 |  | < 1e-05 | 
28 | G7U U30G C34G | < 1e-05 |  | < 1e-05 | < 1e-05
29 | C11U A42G U54A | 3.87e-05 ± 1.6e-05 | 0.000886 ± 0.00027 |  | 
30 | C8U A14C | < 1e-05 | < 1e-05 | < 1e-05 | < 1e-05
31 | C8U G37C A39G | < 1e-05 | < 1e-05 | < 1e-05 | < 1e-05
32 | C11G G63U | < 1e-05 |  | < 1e-05 | < 1e-05
33 | C8G C11U A48U U57G C71U | < 1e-05 |  |  | 
34 | C8A A53U U55G | < 1e-05 | < 1e-05 |  | 
35 | C11G A36C U55A | < 1e-05 |  |  | 
36 | G7C A14U C16G U30A U56A C67G | < 1e-05 | < 1e-05 |  | 
37 | C10G G38U G41U U49C C50U C70A | < 1e-05 |  |  | < 1e-05
38 | C10U A39U C67G | < 1e-05 | < 1e-05 |  | 
39 | G9U G13C G40A G44U G63U | < 1e-05 | < 1e-05 | < 1e-05 | 
40 | C10G A12U U31A A33U G63A | < 1e-05 |  |  | 
41 | C10A G32C G38C | < 1e-05 |  | < 1e-05 | 
42 | C10A U30G A48U | < 1e-05 | < 1e-05 | < 1e-05 | < 1e-05
43 | G9U C11U C34A G43U C61A C67G | < 1e-05 |  |  | 
44 | C8A G29C C50U | < 1e-05 |  | < 1e-05 | 

Row | Variant | self-cleavage kobs at 160 uM GlcN6P [1] [s⁻¹] | self-cleavage kobs at 640 uM GlcN6P [2] [s⁻¹] | self-cleavage kobs at 2500 uM GlcN6P [3] [s⁻¹] | self-cleavage kobs at 10000 uM GlcN6P [4] [s⁻¹]
45 | G9C C34G C61G | < 1e-05 |  | < 1e-05 | < 1e-05
46 | G7A C50A G51A | < 1e-05 | < 1e-05 | < 1e-05 | 
47 | G9C U30G U45A | < 1e-05 |  |  | 
48 | C8A A33U G51A | < 1e-05 | < 1e-05 |  | 
49 | C10A U54G C71G | 9.72e-05 ± 3.2e-05 | 0.000112 ± 5.5e-05 |  | 
50 | C10U G37A G63A | < 1e-05 | < 1e-05 | < 1e-05 | 
51 | G7U U69C | < 1e-05 |  | < 1e-05 | 
52 | G9A U30G G37U | < 1e-05 |  |  | 
53 | C8G C70U | < 1e-05 | < 1e-05 | < 1e-05 | < 1e-05
54 | C8U A33G G37U G43C U54A U56C C67U | < 1e-05 | < 1e-05 | < 1e-05 | 
55 | C11U A12U C71A | 8.52e-05 ± 2.9e-05 | 0.000232 ± 4.5e-05 | 0.000457 ± 8.7e-05 | 
56 | G7C G29U A33G | < 1e-05 | < 1e-05 |  | 
57 | G9C G29A G51U | < 1e-05 | < 1e-05 | < 1e-05 | 
58 | C11G G29U U69G | 0.000155 ± 3.5e-05 | 0.000133 ± 3.6e-05 |  | 
59 | G7A A36G | < 1e-05 | < 1e-05 | < 1e-05 | 
60 | G7A A33C A42C A48C | < 1e-05 |  | < 1e-05 | 
61 | C10A G13C C16U G51C | < 1e-05 |  |  | 
62 | C11U C61A C67G | 7.27e-05 ± 2.3e-05 | 8.2e-05 ± 3.6e-05 | 7.14e-05 ± 3.3e-05 | 
63 | G9C A64C | < 1e-05 | < 1e-05 |  | < 1e-05
64 | C10U G43C U47C A52C U65C G66A C70G | < 1e-05 | < 1e-05 |  | 
65 | C8U A33C C71G | < 1e-05 |  |  | 
66 | G9A C10U | < 1e-05 | < 1e-05 | < 1e-05 | < 1e-05

Row | Variant | self-cleavage kobs at 160 uM GlcN6P [1] [s⁻¹] | self-cleavage kobs at 640 uM GlcN6P [2] [s⁻¹] | self-cleavage kobs at 2500 uM GlcN6P [3] [s⁻¹] | self-cleavage kobs at 10000 uM GlcN6P [4] [s⁻¹]
67 | C10U U31A U49G G62U C68U | < 1e-05 |  |  | 
68 | C8A A39G A52U | < 1e-05 | < 1e-05 | < 1e-05 | 
69 | C8A C16U G29U G62A | < 1e-05 | < 1e-05 |  | 
70 | C8A G13A G43U G51U | < 1e-05 |  | < 1e-05 | 
71 | C8G G37A | < 1e-05 | < 1e-05 | < 1e-05 | 
72 | G9U U31A U65G | < 1e-05 | < 1e-05 | < 1e-05 | 
73 | C8A A53U U55C C58U U69C | < 1e-05 |  |  | 
74 | A6U G37C C71U | < 1e-05 |  |  | 
75 | G9A U46G U57A | < 1e-05 | < 1e-05 | < 1e-05 | 
76 | G7U U49G | < 1e-05 | < 1e-05 | < 1e-05 | < 1e-05
77 | C10U U46C C70U | < 1e-05 |  |  | 
78 | C10G G32C A52U | < 1e-05 | < 1e-05 | < 1e-05 | 
79 | G9U G29C | < 1e-05 | < 1e-05 | < 1e-05 | < 1e-05
80 | C8U G35U G62C | < 1e-05 | < 1e-05 | < 1e-05 | 
81 | C8U U31G G44U C71G | < 1e-05 | < 1e-05 |  | 
82 | G9A G32A G43C U56C C68U | < 1e-05 | < 1e-05 | < 1e-05 | 
83 | C8U C50G G63U | 0.000108 ± 2.8e-05 |  | 5.35e-05 ± 2.6e-05 | 
84 | C8A C10U U31A | < 1e-05 |  |  | < 1e-05
85 | C10A C34U C50G G62U | 0.00045 ± 0.00013 | 0.000144 ± 4.8e-05 | 8.51e-05 ± 2.1e-05 | 
86 | C8A G35C G62U | < 1e-05 | < 1e-05 | < 1e-05 | 
87 | G9A C11U C16U G63A U65G C68G | 4.96e-05 ± 1.6e-05 | 7.82e-05 ± 1.8e-05 | 3.97e-05 ± 1.5e-05 | 
88 | G7U U55G U57G C61A A64C C68U | < 1e-05 |  | < 1e-05 | 

Row | Variant | self-cleavage kobs at 160 uM GlcN6P [1] [s⁻¹] | self-cleavage kobs at 640 uM GlcN6P [2] [s⁻¹] | self-cleavage kobs at 2500 uM GlcN6P [3] [s⁻¹] | self-cleavage kobs at 10000 uM GlcN6P [4] [s⁻¹]
89 | G7C A24U U46A C68U | < 1e-05 | < 1e-05 |  | < 1e-05
90 | C11G G35A C58G | < 1e-05 | < 1e-05 | < 1e-05 | 
91 | C10G G32U U69G | < 1e-05 |  |  | 
92 | G7U G13C A39G | < 1e-05 | < 1e-05 | < 1e-05 | 
93 | C10A G35C C67U | < 1e-05 |  | < 1e-05 | 
94 | C8U G9C U31G A33C | < 1e-05 | < 1e-05 | < 1e-05 | 
95 | G9U C10U C16U | < 1e-05 |  | < 1e-05 | 
96 | C8U G13U G43A C61G | < 1e-05 |  |  | 
97 | G7U A12G U45C U46G C71U | < 1e-05 |  | < 1e-05 | 
98 | G7A U56C | < 1e-05 | < 1e-05 | < 1e-05 | < 1e-05
99 | C8U A36U G40C U56A | < 1e-05 |  | < 1e-05 | 
100 | G7A G13A G37C U46G | < 1e-05 |  | < 1e-05 | 
101 | G7U A12U U45G | < 1e-05 | < 1e-05 | < 1e-05 | 
102 | G7A A14C A36C A64U | < 1e-05 | < 1e-05 | < 1e-05 | 
103 | G7U A36U C71A | < 1e-05 |  |  | 
104 | C8A G13C U30C G41U | < 1e-05 |  | < 1e-05 | < 1e-05
105 | G7A G29U | < 1e-05 | < 1e-05 |  | 
106 | G7A G38U G44C U49A A53U U56C | < 1e-05 |  |  | 
107 | C10U U30C | < 1e-05 |  | < 1e-05 | 
